Experimental data reported in patent US20220298235A1 (AKESO BIOPHARMA, published 2022).
Residue numbers refer to the chain shown, from its start.

T1: human p40-His (human, UniProt P29460 23-328)
T1 construct: Made by Akeso Biopharma; construct limits and tag not described; also called human IL-12/IL-23 p40 protein domain; human IL-12/IL-23 p40; not shown: His tag
T1 sequence (looked up): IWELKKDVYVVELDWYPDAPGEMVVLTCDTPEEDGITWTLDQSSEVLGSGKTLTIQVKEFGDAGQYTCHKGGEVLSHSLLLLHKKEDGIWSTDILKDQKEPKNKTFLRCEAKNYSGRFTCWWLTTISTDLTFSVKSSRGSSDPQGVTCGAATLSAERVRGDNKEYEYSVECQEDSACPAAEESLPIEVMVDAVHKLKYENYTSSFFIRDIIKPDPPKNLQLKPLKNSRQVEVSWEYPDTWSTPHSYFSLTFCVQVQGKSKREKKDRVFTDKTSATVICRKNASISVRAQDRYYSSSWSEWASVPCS

T2: Human IL12 (His Tag) (human, UniProt P29459 23-219; P29460 23-328)
T2 construct: Bought His-tagged heterodimer
T2 sequence (looked up) 1: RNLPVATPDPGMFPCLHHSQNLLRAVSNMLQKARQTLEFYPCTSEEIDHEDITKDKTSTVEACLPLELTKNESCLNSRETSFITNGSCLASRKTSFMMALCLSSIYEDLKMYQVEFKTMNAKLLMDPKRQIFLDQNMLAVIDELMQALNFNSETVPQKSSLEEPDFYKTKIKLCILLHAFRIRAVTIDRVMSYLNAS
T2 sequence (looked up) 2: T1 sequence (looked up)

B1: H5L11 (antibody, human IgG1, kappa, V domains shown)
VH: EVQLVQSGAEVKKPGESLKISCQSSGYSFTTYWIGWVRQMPGQGLEWIGIMSPVDSDIRYNPMFRGQVTMSVDKSSSTAYLQWSSLKASDTAMYYCARRRPGQGYFDFWGQGTMVTVSS
VL: EIVLTQSPATLSASPGERATISCRASQSVSSWLAWYQQKPGQAPRSLIYSASNLQSGIPARFSGSGSGTDFTLTISSLEPEDFAVYYCQQYNIYPYTFGQGTRLEIKR
notes: human IgG1 / kappa constant regions; also called humanized antibody H5L11
B2: H5L12 (antibody, human IgG1, kappa, V domains shown)
VH: B1 VH
VL: B1 VL with S50A, L54R
notes: human IgG1 / kappa constant regions; also called humanized antibody H5L12
B3: H5L14 (antibody, human IgG1, kappa, V domains shown)
VH: B1 VH
VL: B1 VL with S50A, Y96F
notes: human IgG1 / kappa constant regions; also called humanized antibody H5L14
B4: ustekinumab (antibody, V domains shown)
VH: EVQLVQSGAEVKKPGESLKISCKGSGYSFTTYWLGWVRQMPGKGLDWIGIMSPVDSDIRYSPSFQGQVTMSVDKSITTAYLQWNSLKASDTAMYYCARRRPGQGYFDFWGQGTLVTVSS
VL: DIQMTQSPSSLSASVGDRVTITCRASQGISSWLAWYQQKPEKAPKSLIYAASSLQSGVPSRFSGSGSGTDFTLTISSLQPEDFATYYCQQYNIYPYTFGQGTKLEIK
B5: H5L10 (antibody, human IgG1, kappa, V domains shown)
VH: B1 VH
VL: B1 VL with S30G, S50A
notes: human IgG1 / kappa constant regions; also called humanized antibody H5L10
B6: H5L9 (antibody, human IgG1, kappa, V domains shown)
VH: B1 VH
VL: DIQMTQSPSSLSASVGDRVTITCKASQNVGSWLAWYQQKPGKAPKSLIYSASSRQSGVPSRFSGSGSGTDFTLTISSLQPEDFATYYCQQYDIYPFTFGQGTKLEIKR
notes: human IgG1 (P01857) / kappa (P01834) constant regions; also called humanized antibody H5L9

Target: T1, human p40-His
Assay: indirect ELISA, p40-His coat 0.125 µg/mL
Procedure: A microplate was coated with human p40-His (Akeso Biopharma, Inc.; gene of p40: GeneBank NM002187). After incubation at 4° C. for no less than 12 h, the plate was washed with PBST, patted dry and blocked with a solution of 1% BSA in PBS. After blocking was completed, the plate was washed with PBST and patted dry. The antibody diluted with PBST solution in gradient was added into the wells of the plate, and the antibody dilution gradient is detailed in Table 1. The plate containing the test antibody was incubated at 37° C. for 30 min and then washed with PBST and patted dry. […] TMB (Neogen, 308177) was added for color developing for 5 min in the absence of light, and then stop solution was added to terminate the chromogenic reaction. Then the plate was put into a plate reader immediately, and the OD value of each well in the plate was read at 450 nm. The data were analyzed by SoftMax Pro 6.2.1.
The detection results of the binding of antibodies H5L11, H5L12, H5L14 and Ab123FR1 to the antigen human p40-His are shown in FIG. 3. The binding EC₅₀ of antibody was calculated by curve fitting using antibody concentration as the abscissa and absorbance value as the ordinate, and the results are shown in Table 3 below.

EC50 [nM]	Binder
0.082	B1
0.082	B2
0.107	B3

Target: T2, Human IL12 (His Tag)
Assay: FACS competition, IL-12-His 20 nM on 293T-IL-12Rβ1&IL-23R cells
Procedure: (§1) 200 μL of 1% PBSA was added into each sample, and the mixture was centrifuged at 700×g for 5 min to discard the supernatant. According to experiment design, correspondingly diluted antibody (highest final concentration of 30 μg/mL, 3-fold dilution, 8 concentrations in total) and human IL-12 (Sino Biological, Cat. No.: CT-050-H08H-20) (final concentration of 20 nM) were mixed at a ratio of 1:1, and a blank control was set. The mixture of antibody and human IL12 was incubated on ice for 30 min and then added to the cell precipitate at 100 μL/sample. The resulting mixture was well mixed and incubated on ice for 60 min 200 μL of 1% PBSA was added, and the mixture was centrifuged at 700×g for 5 min to discard the supernatant, and then washed twice. Alexa Fluor® 488 anti-His tag antibody (Biolegend, Cat. No.: 652509) was diluted at a ratio of 1:400 and added to each tube at 100 μL. The mixture was well mixed and incubated on ice for 40 min in the absence of light. 200 μL of 1% PBSA was added, and the mixture was centrifuged at 700×g for 5 min to discard the supernatant, and then washed twice. 1% PBSA was added at 200 μL/tube, and the cells were resuspended and transferred to a flow cytometry tube for testing.

EC50 [µg/mL]	Binder
0.377	B4
0.331	B5
0.414	B1
0.317	B2
0.532	B3

Target: T1, human p40-His
Assay: BLI (Fortebio), p40-His on HIS1K sensor, antibody 5-0.31 nM, 37 °C, 1:1 fit
Procedure: The sample dilution buffer for H5L9, H5L10, H5L11, H5L12, H5L14, H8L15, Ab123FR1 and ustekinumab was PBS (0.02% Tween-20, 0.1% BSA, pH 7.4). p40-His was immobilized on a HIS1K (manufacturer: Fortebio, Cat. No.: 18-5120) sensor at a concentration of 1 μg/mL for 40 s. The sensor was equilibrated in a buffer for 60 s, and the p40-His immobilized on the sensor bound to the antibody at a concentration of 5-0.31 nM (two-fold dilution) for 120 s, and then the protein dissociated in the buffer for 300 s. The sensor was refreshed with 10 mM glycine solution (pH=1.5). The detection temperature was 37° C., the detection frequency was 0.3 Hz, and the sample plate shaking rate was 500 rpm. The data were analyzed by 1:1 model fitting to obtain affinity constants.

Kd [nM]	S E (kon) [M⁻¹ s⁻¹]	S E(kdis) [s⁻¹]	koff [s⁻¹]	kon [M⁻¹ s⁻¹]	Binder
0.0864	251000	0.000181	0.000172	1.99e+06	B4
0.121	364000	0.000222	0.000435	3.58e+06	B5
0.849	850000	0.000307	0.0092	1.08e+07	B6
0.136	232000	0.000144	0.000428	3.15e+06	B1
0.0905	212000	0.000124	0.000348	3.84e+06	B2
0.062	236000	0.000158	0.000182	2.94e+06	B3

Target: T2, Human IL12 (His Tag)
Assay: FACS competition, IL-12-His 20 nM on 293T-IL-12Rβ1&IL-23R cells; antibody 0.04 µg/mL
Procedure: as §1

MFI [MFI]	Binder
150	B4
154	B5
158	B6
151	B1
149	B2
155	B3
